For one series, the target named is T1, dHEXIM ILAA (Drosophila, UniProt Q7K4N7 1-349, K42I;H43L;R44A;R45A).
T1 sequence: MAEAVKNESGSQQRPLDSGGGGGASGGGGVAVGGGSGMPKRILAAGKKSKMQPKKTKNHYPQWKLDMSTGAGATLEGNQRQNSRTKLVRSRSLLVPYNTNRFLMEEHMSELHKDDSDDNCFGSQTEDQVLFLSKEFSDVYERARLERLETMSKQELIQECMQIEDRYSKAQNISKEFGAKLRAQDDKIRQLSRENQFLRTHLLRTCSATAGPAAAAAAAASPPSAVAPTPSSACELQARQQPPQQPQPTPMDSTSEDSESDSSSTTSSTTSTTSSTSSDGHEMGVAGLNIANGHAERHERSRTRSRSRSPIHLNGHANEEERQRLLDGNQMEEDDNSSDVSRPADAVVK
Description: EMSA.

The target of the next series is T2, dHEXIM WT (Drosophila, UniProt Q7K4N7 1-349).
T2 sequence: T1 sequence with I42K, L43H, A44R, A45R
Description: EMSA.

Changes are numbered by the printed parent chain.

B1: dsRNA oligo (TTF2 25-mer) (dsRNA)
RNA 1: CAAGCAAGAGGCAGAGAUCCCAGGU
RNA 2: ACCUGGGAUCUCUGCCUCUUGCUUG
Take B1: the figures for the binding result in the series with dHEXIM ILAA and with dHEXIM WT were “no binding” and “binds”, respectively.

Source of the values: PMC3384314.
